From PMC5018964, “Visualization and ligand-induced modulation of dopamine receptor dimerization at the single molecule level” (Scientific Reports, 2016)

Key:
Conditions in all cases: remark: other sources report otherwise
[1] = target: T1, N-terminally SNAP-tagged human dopamine D2L receptor (human), P14416; experiment: single-molecule TIRF microscopy (intensity distribution of fluorescent spots); living stably transfected CHO cells, SNAP-tag labelled with 1 uM Alexa546-BG, ligand-free; spots of the first 10 frames fitted with a mixed Gaussian model; room temperature (24.0 ± 0.3 °C), imaging buffer pH 7.4; SNAP-D2L at 0.67 ± 0.03 spots um^-2
T1 chain: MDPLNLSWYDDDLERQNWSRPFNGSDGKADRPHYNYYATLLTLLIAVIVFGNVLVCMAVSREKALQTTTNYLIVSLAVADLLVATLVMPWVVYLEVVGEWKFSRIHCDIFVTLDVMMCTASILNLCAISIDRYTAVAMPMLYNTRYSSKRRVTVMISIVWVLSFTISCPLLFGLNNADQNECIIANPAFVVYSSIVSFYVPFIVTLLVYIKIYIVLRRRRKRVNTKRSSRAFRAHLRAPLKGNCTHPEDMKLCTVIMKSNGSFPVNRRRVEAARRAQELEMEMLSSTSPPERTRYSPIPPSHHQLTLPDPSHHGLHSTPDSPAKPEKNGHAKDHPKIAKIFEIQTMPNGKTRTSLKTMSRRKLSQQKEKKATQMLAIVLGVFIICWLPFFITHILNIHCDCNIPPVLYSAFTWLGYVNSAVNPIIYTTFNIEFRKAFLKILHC

[2] = target: T1, N-terminally SNAP-tagged human dopamine …; experiment: single-molecule TIRF microscopy (intensity distribution of fluorescent spots); Alexa546-BG-labelled SNAP-D2L on living CHO cells, incubated 1 h with the bivalent antagonists 2a or 2b at 10-fold Ki
[3] = target: T1, N-terminally SNAP-tagged human dopamine …; experiment: single-molecule TIRF microscopy (lifetime of transient dimers from intensity trajectories); Alexa546-labelled SNAP-D2L on living CHO cells, ligand-free; 120 dimers whose trajectories show intensity doubling and return; one-phase exponential fit
[4] = target: T1, N-terminally SNAP-tagged human dopamine …; experiment: single-molecule TIRF microscopy (apparent lifetime of particle colocalization); Alexa546-labelled SNAP constructs on living CHO cells, ligand-free; time from the beginning of tracking to a one-step intensity change, 120 trajectories, one-phase exponential decay; apparent
[5] = target: T1, N-terminally SNAP-tagged human dopamine …; experiment: single-molecule TIRF microscopy (apparent lifetime of particle colocalization); Alexa546-labelled SNAP-D2L on living CHO cells with the bivalent ligand 2a; 120 trajectories, one-phase exponential decay; apparent
[6] = target: T1, N-terminally SNAP-tagged human dopamine …; experiment: single-molecule TIRF microscopy (intensity distribution of fluorescent spots); Alexa546-BG-labelled SNAP-D2L on living CHO cells, incubated 1 h with the unsymmetrical control ligands 3a or 3b (one pharmacophore, one non-binding motif) at 10-fold Ki
[7] = target: T1, N-terminally SNAP-tagged human dopamine …; experiment: single-molecule TIRF microscopy (intensity distribution of fluorescent spots); receptors on living CHO cells labelled 1 h at 37 °C with a fluorescent (Cy3B) antagonist (1c, 4a or 4b) at 10-fold Ki; spots fitted with a mixed Gaussian model
[8] = target: T1, N-terminally SNAP-tagged human dopamine …; experiment: single-molecule TIRF microscopy (apparent lifetime of particle colocalization); Alexa546-labelled SNAP-D2L on living CHO cells with the monovalent ligand 1a; 120 trajectories, one-phase exponential decay; apparent

B1: N-terminally SNAP-tagged human dopamine D2L receptor, P14416 1-443 (receptor)
chain: MDPLNLSWYDDDLERQNWSRPFNGSDGKADRPHYNYYATLLTLLIAVIVFGNVLVCMAVSREKALQTTTNYLIVSLAVADLLVATLVMPWVVYLEVVGEWKFSRIHCDIFVTLDVMMCTASILNLCAISIDRYTAVAMPMLYNTRYSSKRRVTVMISIVWVLSFTISCPLLFGLNNADQNECIIANPAFVVYSSIVSFYVPFIVTLLVYIKIYIVLRRRRKRVNTKRSSRAFRAHLRAPLKGNCTHPEDMKLCTVIMKSNGSFPVNRRRVEAARRAQELEMEMLSSTSPPERTRYSPIPPSHHQLTLPDPSHHGLHSTPDSPAKPEKNGHAKDHPKIAKIFEIQTMPNGKTRTSLKTMSRRKLSQQKEKKATQMLAIVLGVFIICWLPFFITHILNIHCDCNIPPVLYSAFTWLGYVNSAVNPIIYTTFNIEFRKAFLKILHC
modifications: here or on the partner: Alexa546 covalently on the SNAP-tag through benzylguanine (Alexa546-BG) in the SNAP-labelling experiments; Alexa546 covalently on the SNAP-tag through benzylguanine (Alexa546-BG) in the SNAP-labelling experiments
percent of fluorescent spots that are dimers [1]: 30% | percent of fluorescent spots that are monomers [1]: 70% | stoichiometry N [1]: 2 | percent of fluorescent spots that are dimers, with bivalent antagonist 2a [2]: 66% | percent of fluorescent spots that are dimers, with bivalent antagonist 2b [2]: 58% | half-life (t1/2) of the transient dimer [3]: 0.35 s | lifetime of the transient dimer [3]: 0.5 s | apparent colocalization lifetime (tau) [4]: 0.46 s | apparent colocalization lifetime (tau), with bivalent ligand 2a [5]: 1.16 s | percent of fluorescent spots that are dimers, with control ligand 3a [6]: 33% | percent of fluorescent spots that are dimers, with control ligand 3b [6]: 34% | percent of fluorescent spots that are monomers, with control ligand 3a [6]: 67% | percent of fluorescent spots that are monomers, with control ligand 3b [6]: 66% | percent of fluorescent spots that are dimers, labelled with antagonist 1c [7]: 26% | percent of fluorescent spots that are monomers, labelled with antagonist 1c [7]: 74% | apparent colocalization lifetime (tau), with monovalent ligand 1a [8]: 0.42 s
